# Values of other authors, collected in article PMC5755571.
# Biological target: His64 (UniProt position 64, ILNNGHAFNVE)
substance,measurement,value
Carbonic anhydrase II (hCAII) (Homo sapiens),pKa,around 7
